Laboratory results published in patent US5455181A, “Thrombin-inhibitory proteins from terrestrial leeches” (BASF Aktiengesellschaft, priority 1991, dated 1995).
No end group written: not given here.

Biological target: T1, Thrombin (Homo sapiens, UniProt P00734)
T1 construct: purchased Boehringer Mannheim
Experiment: Determination of the inhibition of thrombin (Chromozym TH chromogenic substrate, absorption at 405 nm)
Format: biochemical
Settings: periplasmic expression in E. coli DH 5α, fusion protein with maltose binding protein
Protocol: The purification of the proteins can be followed by a thrombin activity assay. It is expedient to use for this an optical assay in which a chromogenic substrate, for example Chromozym TH, is converted by thrombin. The fractions containing the novel proteins can be identified on addition to this optical assay by their thrombin-inhibiting action.
Thrombin (Boehringer Mannheim) was dissolved to a final concentration of 25 mU/ml in phosphate-buffered saline (PBS) ([…] NaCl; 0.2 g/1 […]; 0.144 g/l sodium phosphate; 0.2 g/l potassium phosphate, pH 7.5).
Chromozym TH (Boehringer Mannheim) was dissolved in 20 ml of H2 O/vial.
50 μl of thrombin solution and 100 μl of Chromozym plus 25 μl of sample or buffer were placed in the wells of a microtiter plate. The absorption at 405 nm was measured immediately thereafter at time 0 and after 30 minutes at 37° C.
The thrombin activity leads to liberation from the chromogenic substrate of a dye which absorbs at 405 nm. The inhibition of thrombin by a thrombin inhibitor is evident from a smaller increase in absorption at 405 nm and was quantified using a calibration plot.

concentration of the thrombin inhibitor: 1250 units per liter of culture medium
Substance: thrombin inhibitor: recombinant protein, SEQ ID NO: 23 position 1 to 57, expressed in E. coli as fusion protein with maltose binding protein (MFSTKMFVVFVAVCICVTQSIRFGMGKVPCPDGEVGYTCDCGEKICLYGQSCNDGQC; cysteine pairing not given here; also: expressed as fusion protein with maltose binding protein)
